According to the supplement of paper PMC9112550, “Optimization of the antimicrobial peptide Bac7 by deep mutational scanning” (BMC Biology, 2022):

Each sequence was assayed on Escherichia coli TOP10 (assay: shrunken log2 fold change of peptide-encoding DNA abundance (4.5 h post-induction vs induction); higher = less antimicrobial activity (less host growth inhibition)). Details: time post-induction: 4.5 h; library: site-saturation at positions 5, 18, 19, 20.
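Also: peptides expressed intracellularly from a pBAD plasmid library in pooled LB shake-flask culture, induced with 0.3% L-arabinose, DNA abundance read by NGS, three biological replicates, DESeq2 with apeglm shrinkage.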

In order of falling “shrunken log2 fold change” value:
1. RRIRGRPPRLPRPRPRPHEDPRP  3.55
2. RRIRWRPPRLPRPRPRPEGGPRP  0.567
3. RRIRNRPPRLPRPRPRPECGPRP  0.445
4. RRIRCRPPRLPRPRPRPADEPRP  0.431
5. RRIRERPPRLPRPRPRPEMAPRP  0.414
6. RRIRNRPPRLPRPRPRPRQQPRP  0.365
7. RRIRQRPPRLPRPRPRPKCGPRP  0.354
8. RRIRKRPPRLPRPRPRPIPFPRP  0.347
9. RRIRPRPPRLPRPRPRPLWPPRP  0.325
10. RRIRDRPPRLPRPRPRPSTAPRP  0.314
11. RRIRMRPPRLPRPRPRPFLGPRP  0.254
12. RRIRARPPRLPRPRPRPSEQPRP  0.248
13. RRIRYRPPRLPRPRPRPTMRPRP  0.243
14. RRIRDRPPRLPRPRPRPQSHPRP  0.236
15. RRIRARPPRLPRPRPRPQGMPRP  0.233
16. RRIRHRPPRLPRPRPRPPKHPRP  0.2
17. RRIRFRPPRLPRPRPRPVWSPRP  0.175
18. RRIRRRPPRLPRPRPRPRCIPRP  0.174
19. RRIRRRPPRLPRPRPRPKVMPRP  0.16
20. RRIRLRPPRLPRPRPRPDENPRP  0.087
21. RRIRWRPPRLPRPRPRPKHDPRP  0.0868
22. RRIRHRPPRLPRPRPRPMVWPRP  0.0787
23. RRIRTRPPRLPRPRPRPGKRPRP  0.0687
24. RRIRARPPRLPRPRPRPDESPRP  0.0602
25. RRIRSRPPRLPRPRPRPITPPRP  0.0356
26. RRIRTRPPRLPRPRPRPEPYPRP  0.0261
27. RRIRMRPPRLPRPRPRPANSPRP  0.0248
28. RRIRSRPPRLPRPRPRPNLRPRP  0.0182
29. RRIRQRPPRLPRPRPRPVTCPRP  0.0138
30. RRIRERPPRLPRPRPRPNGCPRP  0.00429
31. RRIRQRPPRLPRPRPRPQWKPRP  -0.0075
32. RRIRQRPPRLPRPRPRPMVGPRP  -0.00963
33. RRIRVRPPRLPRPRPRPWSMPRP  -0.014
34. RRIRFRPPRLPRPRPRPLERPRP  -0.0153
35. RRIRTRPPRLPRPRPRPWQPPRP  -0.0263
36. RRIRIRPPRLPRPRPRPVRQPRP  -0.0328
37. RRIRNRPPRLPRPRPRPMLKPRP  -0.0393
38. RRIRQRPPRLPRPRPRPDIHPRP  -0.0439
39. RRIRTRPPRLPRPRPRPDYSPRP  -0.0445
40. RRIRFRPPRLPRPRPRPQACPRP  -0.0456
41. RRIRRRPPRLPRPRPRPQENPRP  -0.0472
42. RRIRNRPPRLPRPRPRPDAMPRP  -0.0496
43. RRIRIRPPRLPRPRPRPGYWPRP  -0.0497
44. RRIRRRPPRLPRPRPRPSKVPRP  -0.0758
45. RRIRLRPPRLPRPRPRPWPFPRP  -0.0764
46. RRIRVRPPRLPRPRPRPHVIPRP  -0.0921
47. RRIRQRPPRLPRPRPRPKHPPRP  -0.0928
48. RRIRSRPPRLPRPRPRPCFQPRP  -0.0966
49. RRIRTRPPRLPRPRPRPLWCPRP  -0.0967
50. RRIRARPPRLPRPRPRPIGYPRP  -0.0969
51. RRIRTRPPRLPRPRPRPVHRPRP  -0.0993
52. RRIRPRPPRLPRPRPRPTIQPRP  -0.101
53. RRIRWRPPRLPRPRPRPYSFPRP  -0.107
54. RRIRIRPPRLPRPRPRPWWEPRP  -0.109
55. RRIRQRPPRLPRPRPRPCLQPRP  -0.112
56. RRIRLRPPRLPRPRPRPLPIPRP  -0.129
57. RRIRCRPPRLPRPRPRPLHFPRP  -0.131
58. RRIRYRPPRLPRPRPRPHKRPRP  -0.163
59. RRIRIRPPRLPRPRPRPLHKPRP  -0.165
60. RRIRHRPPRLPRPRPRPHHDPRP  -0.166
61. RRIRKRPPRLPRPRPRPIPVPRP  -0.193
62. RRIRVRPPRLPRPRPRPYRAPRP  -0.201
63. RRIRQRPPRLPRPRPRPEHRPRP  -0.271
64. RRIRERPPRLPRPRPRPLWEPRP  -0.281
65. RRIRTRPPRLPRPRPRPKHEPRP  -0.3
66. RRIRYRPPRLPRPRPRPYYLPRP  -0.31
67. RRIRIRPPRLPRPRPRPNFIPRP  -0.327
68. RRIRNRPPRLPRPRPRPRYHPRP  -0.438
69. RRIRQRPPRLPRPRPRPIMIPRP  -0.452
70. RRIRYRPPRLPRPRPRPNCKPRP  -0.504
71. RRIRCRPPRLPRPRPRPHLHPRP  -0.626
72. RRIRSRPPRLPRPRPRPVNTPRP  -0.691
73. RRIRVRPPRLPRPRPRPYCMPRP  -0.898
74. RRIRYRPPRLPRPRPRPHNWPRP  -0.926
75. RRIRQRPPRLPRPRPRPFHIPRP  -1.55
